Source: US20170226155A1 (TRUSTEES OF TUFTS COLLEGE, published 2017)
Where no end group is shown, it is not given here. [ ]: non-standard residue; d: D form. The star is where a group is joined. boroPro = OB(O)[C@@H]1CCCN1*

Experiments:
[1] = target: Dipeptidyl amino peptidase type IV (DPP IV); experiment: cell-based or functional assay
[2] = target: Dipeptidyl amino peptidase type IV (DPP IV); experiment: cell-based or functional assay; remark: listed apart in the source

Binder	IC50 at ten minutes, pH 2 [1]	IC50 at ten minutes, pH 8 [1] [nM]	IC50, pH 2 (Tetrapeptide Prodrugs) [2] [mM]	IC50, pH 8 (Tetrapeptide Prodrugs) [2] [mM]
YPF[boroPro] [TyrProPheboroPro]	50 nM	60		
AAP[boroPro] [AlaAlaProboroPro]	3 µM		3	2
